“And” between values parts separate entries of the source, which are not always exact repeats. Identical values can stand only once.
B1: KB001 mouse Fab FASEBA VH A62M (Fab, V domains shown)
VH: EVQLKQSGPGLVAPSQSLSITCTVSGFSLSIYSVHWVRQPPGKGLEWLGMIWGGGSSDYNSMLKSRLSISKDNSKSQVFLKMNSLQTDDTAMYYCARNGNFYAMDYWGQGTSVTVSS
VL: QIVLTQSPAIMSASLGERVTMTCTASSSVSSSFLHWYQQKPGSSPQLWIYSTSNLASGVPARFSGSGSGTSYSLTISSMEAEDAATYYCHQYHHSPYIYTFGGGTKLEIK
B2: KB001 mouse Fab FASEBA VH A62R (Fab, V domains shown)
VH: EVQLKQSGPGLVAPSQSLSITCTVSGFSLSIYSVHWVRQPPGKGLEWLGMIWGGGSSDYNSRLKSRLSISKDNSKSQVFLKMNSLQTDDTAMYYCARNGNFYAMDYWGQGTSVTVSS
VL: QIVLTQSPAIMSASLGERVTMTCTASSSVSSSFLHWYQQKPGSSPQLWIYSTSNLASGVPARFSGSGSGTSYSLTISSMEAEDAATYYCHQYHHSPYIYTFGGGTKLEIK
B3: KB001 mouse Fab FASEBA VH K64V (Fab, V domains shown)
VH: EVQLKQSGPGLVAPSQSLSITCTVSGFSLSIYSVHWVRQPPGKGLEWLGMIWGGGSSDYNSALVSRLSISKDNSKSQVFLKMNSLQTDDTAMYYCARNGNFYAMDYWGQGTSVTVSS
VL: QIVLTQSPAIMSASLGERVTMTCTASSSVSSSFLHWYQQKPGSSPQLWIYSTSNLASGVPARFSGSGSGTSYSLTISSMEAEDAATYYCHQYHHSPYIYTFGGGTKLEIK
B4: KB001 mouse Fab FASEBA VH A62E (Fab, V domains shown)
VH: EVQLKQSGPGLVAPSQSLSITCTVSGFSLSIYSVHWVRQPPGKGLEWLGMIWGGGSSDYNSELKSRLSISKDNSKSQVFLKMNSLQTDDTAMYYCARNGNFYAMDYWGQGTSVTVSS
VL: QIVLTQSPAIMSASLGERVTMTCTASSSVSSSFLHWYQQKPGSSPQLWIYSTSNLASGVPARFSGSGSGTSYSLTISSMEAEDAATYYCHQYHHSPYIYTFGGGTKLEIK
B5: KB001 mouse Fab FASEBA VH A62Q (Fab, V domains shown)
VH: EVQLKQSGPGLVAPSQSLSITCTVSGFSLSIYSVHWVRQPPGKGLEWLGMIWGGGSSDYNSQLKSRLSISKDNSKSQVFLKMNSLQTDDTAMYYCARNGNFYAMDYWGQGTSVTVSS
VL: QIVLTQSPAIMSASLGERVTMTCTASSSVSSSFLHWYQQKPGSSPQLWIYSTSNLASGVPARFSGSGSGTSYSLTISSMEAEDAATYYCHQYHHSPYIYTFGGGTKLEIK
B6: KB001 mouse Fab FASEBA VH L63V (Fab, V domains shown)
VH: EVQLKQSGPGLVAPSQSLSITCTVSGFSLSIYSVHWVRQPPGKGLEWLGMIWGGGSSDYNSAVKSRLSISKDNSKSQVFLKMNSLQTDDTAMYYCARNGNFYAMDYWGQGTSVTVSS
VL: QIVLTQSPAIMSASLGERVTMTCTASSSVSSSFLHWYQQKPGSSPQLWIYSTSNLASGVPARFSGSGSGTSYSLTISSMEAEDAATYYCHQYHHSPYIYTFGGGTKLEIK
B7: KB001 mouse Fab FASEBA VH A62H (Fab, V domains shown)
VH: EVQLKQSGPGLVAPSQSLSITCTVSGFSLSIYSVHWVRQPPGKGLEWLGMIWGGGSSDYNSHLKSRLSISKDNSKSQVFLKMNSLQTDDTAMYYCARNGNFYAMDYWGQGTSVTVSS
VL: QIVLTQSPAIMSASLGERVTMTCTASSSVSSSFLHWYQQKPGSSPQLWIYSTSNLASGVPARFSGSGSGTSYSLTISSMEAEDAATYYCHQYHHSPYIYTFGGGTKLEIK
B8: KB001 mouse Fab FASEBA VH A62G (Fab, V domains shown)
VH: EVQLKQSGPGLVAPSQSLSITCTVSGFSLSIYSVHWVRQPPGKGLEWLGMIWGGGSSDYNSGLKSRLSISKDNSKSQVFLKMNSLQTDDTAMYYCARNGNFYAMDYWGQGTSVTVSS
VL: QIVLTQSPAIMSASLGERVTMTCTASSSVSSSFLHWYQQKPGSSPQLWIYSTSNLASGVPARFSGSGSGTSYSLTISSMEAEDAATYYCHQYHHSPYIYTFGGGTKLEIK
B9: KB001 mouse Fab FASEBA VH A62I (Fab, V domains shown)
VH: EVQLKQSGPGLVAPSQSLSITCTVSGFSLSIYSVHWVRQPPGKGLEWLGMIWGGGSSDYNSILKSRLSISKDNSKSQVFLKMNSLQTDDTAMYYCARNGNFYAMDYWGQGTSVTVSS
VL: QIVLTQSPAIMSASLGERVTMTCTASSSVSSSFLHWYQQKPGSSPQLWIYSTSNLASGVPARFSGSGSGTSYSLTISSMEAEDAATYYCHQYHHSPYIYTFGGGTKLEIK
B10: KB001 mouse Fab FASEBA VH A62D (Fab, V domains shown)
VH: EVQLKQSGPGLVAPSQSLSITCTVSGFSLSIYSVHWVRQPPGKGLEWLGMIWGGGSSDYNSDLKSRLSISKDNSKSQVFLKMNSLQTDDTAMYYCARNGNFYAMDYWGQGTSVTVSS
VL: QIVLTQSPAIMSASLGERVTMTCTASSSVSSSFLHWYQQKPGSSPQLWIYSTSNLASGVPARFSGSGSGTSYSLTISSMEAEDAATYYCHQYHHSPYIYTFGGGTKLEIK
B11: KB001 mouse Fab FASEBA VH K64M (Fab, V domains shown)
VH: EVQLKQSGPGLVAPSQSLSITCTVSGFSLSIYSVHWVRQPPGKGLEWLGMIWGGGSSDYNSALMSRLSISKDNSKSQVFLKMNSLQTDDTAMYYCARNGNFYAMDYWGQGTSVTVSS
VL: QIVLTQSPAIMSASLGERVTMTCTASSSVSSSFLHWYQQKPGSSPQLWIYSTSNLASGVPARFSGSGSGTSYSLTISSMEAEDAATYYCHQYHHSPYIYTFGGGTKLEIK
B12: KB001 mouse Fab FASEBA VH L63F (Fab, V domains shown)
VH: EVQLKQSGPGLVAPSQSLSITCTVSGFSLSIYSVHWVRQPPGKGLEWLGMIWGGGSSDYNSAFKSRLSISKDNSKSQVFLKMNSLQTDDTAMYYCARNGNFYAMDYWGQGTSVTVSS
VL: QIVLTQSPAIMSASLGERVTMTCTASSSVSSSFLHWYQQKPGSSPQLWIYSTSNLASGVPARFSGSGSGTSYSLTISSMEAEDAATYYCHQYHHSPYIYTFGGGTKLEIK
B13: KB001 mouse Fab FASEBA VH A62V (Fab, V domains shown)
VH: EVQLKQSGPGLVAPSQSLSITCTVSGFSLSIYSVHWVRQPPGKGLEWLGMIWGGGSSDYNSVLKSRLSISKDNSKSQVFLKMNSLQTDDTAMYYCARNGNFYAMDYWGQGTSVTVSS
VL: QIVLTQSPAIMSASLGERVTMTCTASSSVSSSFLHWYQQKPGSSPQLWIYSTSNLASGVPARFSGSGSGTSYSLTISSMEAEDAATYYCHQYHHSPYIYTFGGGTKLEIK
B14: KB001 mouse Fab FASEBA VH A62L (Fab, V domains shown)
VH: EVQLKQSGPGLVAPSQSLSITCTVSGFSLSIYSVHWVRQPPGKGLEWLGMIWGGGSSDYNSLLKSRLSISKDNSKSQVFLKMNSLQTDDTAMYYCARNGNFYAMDYWGQGTSVTVSS
VL: QIVLTQSPAIMSASLGERVTMTCTASSSVSSSFLHWYQQKPGSSPQLWIYSTSNLASGVPARFSGSGSGTSYSLTISSMEAEDAATYYCHQYHHSPYIYTFGGGTKLEIK
B15: KB001 mouse Fab FASEBA VH A62F (Fab, V domains shown)
VH: EVQLKQSGPGLVAPSQSLSITCTVSGFSLSIYSVHWVRQPPGKGLEWLGMIWGGGSSDYNSFLKSRLSISKDNSKSQVFLKMNSLQTDDTAMYYCARNGNFYAMDYWGQGTSVTVSS
VL: QIVLTQSPAIMSASLGERVTMTCTASSSVSSSFLHWYQQKPGSSPQLWIYSTSNLASGVPARFSGSGSGTSYSLTISSMEAEDAATYYCHQYHHSPYIYTFGGGTKLEIK
B16: KB001 mouse Fab FASEBA VH L63Y (Fab, V domains shown)
VH: EVQLKQSGPGLVAPSQSLSITCTVSGFSLSIYSVHWVRQPPGKGLEWLGMIWGGGSSDYNSAYKSRLSISKDNSKSQVFLKMNSLQTDDTAMYYCARNGNFYAMDYWGQGTSVTVSS
VL: QIVLTQSPAIMSASLGERVTMTCTASSSVSSSFLHWYQQKPGSSPQLWIYSTSNLASGVPARFSGSGSGTSYSLTISSMEAEDAATYYCHQYHHSPYIYTFGGGTKLEIK
B17: KB001 mouse Fab FASEBA VH L63H (Fab, V domains shown)
VH: EVQLKQSGPGLVAPSQSLSITCTVSGFSLSIYSVHWVRQPPGKGLEWLGMIWGGGSSDYNSAHKSRLSISKDNSKSQVFLKMNSLQTDDTAMYYCARNGNFYAMDYWGQGTSVTVSS
VL: QIVLTQSPAIMSASLGERVTMTCTASSSVSSSFLHWYQQKPGSSPQLWIYSTSNLASGVPARFSGSGSGTSYSLTISSMEAEDAATYYCHQYHHSPYIYTFGGGTKLEIK
B18: KB001 mouse Fab FASEBA VH K64I (Fab, V domains shown)
VH: EVQLKQSGPGLVAPSQSLSITCTVSGFSLSIYSVHWVRQPPGKGLEWLGMIWGGGSSDYNSALISRLSISKDNSKSQVFLKMNSLQTDDTAMYYCARNGNFYAMDYWGQGTSVTVSS
VL: QIVLTQSPAIMSASLGERVTMTCTASSSVSSSFLHWYQQKPGSSPQLWIYSTSNLASGVPARFSGSGSGTSYSLTISSMEAEDAATYYCHQYHHSPYIYTFGGGTKLEIK
B19: KB001 mouse Fab FASEBA VH K64H (Fab, V domains shown)
VH: EVQLKQSGPGLVAPSQSLSITCTVSGFSLSIYSVHWVRQPPGKGLEWLGMIWGGGSSDYNSALHSRLSISKDNSKSQVFLKMNSLQTDDTAMYYCARNGNFYAMDYWGQGTSVTVSS
VL: QIVLTQSPAIMSASLGERVTMTCTASSSVSSSFLHWYQQKPGSSPQLWIYSTSNLASGVPARFSGSGSGTSYSLTISSMEAEDAATYYCHQYHHSPYIYTFGGGTKLEIK
B20: KB001 mouse Fab FASEBA VH L63M (Fab, V domains shown)
VH: EVQLKQSGPGLVAPSQSLSITCTVSGFSLSIYSVHWVRQPPGKGLEWLGMIWGGGSSDYNSAMKSRLSISKDNSKSQVFLKMNSLQTDDTAMYYCARNGNFYAMDYWGQGTSVTVSS
VL: QIVLTQSPAIMSASLGERVTMTCTASSSVSSSFLHWYQQKPGSSPQLWIYSTSNLASGVPARFSGSGSGTSYSLTISSMEAEDAATYYCHQYHHSPYIYTFGGGTKLEIK
B21: KB001 mouse Fab FASEBA VH K64G (Fab, V domains shown)
VH: EVQLKQSGPGLVAPSQSLSITCTVSGFSLSIYSVHWVRQPPGKGLEWLGMIWGGGSSDYNSALGSRLSISKDNSKSQVFLKMNSLQTDDTAMYYCARNGNFYAMDYWGQGTSVTVSS
VL: QIVLTQSPAIMSASLGERVTMTCTASSSVSSSFLHWYQQKPGSSPQLWIYSTSNLASGVPARFSGSGSGTSYSLTISSMEAEDAATYYCHQYHHSPYIYTFGGGTKLEIK

biological target: HRgpA-6H (Porphyromonas gingivalis) (UniProt P28784); assay: ELISA on coated HRgpA-6H
Chain of UniProt P28784 (P28784 228-991 limits assumed): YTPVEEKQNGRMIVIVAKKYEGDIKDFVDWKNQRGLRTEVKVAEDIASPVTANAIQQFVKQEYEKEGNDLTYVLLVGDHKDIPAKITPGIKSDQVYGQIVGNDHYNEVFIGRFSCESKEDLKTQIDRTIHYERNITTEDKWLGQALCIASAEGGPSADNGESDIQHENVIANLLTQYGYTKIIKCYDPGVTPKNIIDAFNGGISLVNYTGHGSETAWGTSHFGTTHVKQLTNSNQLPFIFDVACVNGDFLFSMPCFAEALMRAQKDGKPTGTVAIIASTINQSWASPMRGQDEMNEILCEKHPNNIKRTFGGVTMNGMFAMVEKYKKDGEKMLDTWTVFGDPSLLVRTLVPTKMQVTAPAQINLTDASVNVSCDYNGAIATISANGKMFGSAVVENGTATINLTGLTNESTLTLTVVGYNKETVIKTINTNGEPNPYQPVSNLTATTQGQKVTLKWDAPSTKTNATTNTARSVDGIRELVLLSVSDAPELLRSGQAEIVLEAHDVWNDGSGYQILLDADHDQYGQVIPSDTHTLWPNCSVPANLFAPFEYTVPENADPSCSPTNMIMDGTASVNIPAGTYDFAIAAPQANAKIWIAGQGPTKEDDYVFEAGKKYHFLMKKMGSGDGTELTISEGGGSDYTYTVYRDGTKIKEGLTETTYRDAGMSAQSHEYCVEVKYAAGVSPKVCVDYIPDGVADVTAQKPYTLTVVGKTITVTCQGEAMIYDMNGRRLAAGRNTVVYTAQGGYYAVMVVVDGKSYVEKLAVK

Binder | OD450nm | Ratio OD(Variant)/OD(WT)
B1 | 0.77 and 0.735 | 0.881 and 0.841
B2 | 0.733 and 0.847 and 0.809 | 0.839 and 0.969 and 0.926
B3 | 0.715 and 0.714 | 0.865 and 0.863
B4 | 0.854 | 0.977
B5 | 0.737 and 0.869 | 0.843 and 0.994
B6 | 0.784 and 0.77 and 0.778 | 0.897 and 0.881 and 0.89
B7 | 0.819 and 0.834 and 0.844 | 0.937 and 0.954 and 0.966
B8 | 0.813 and 0.785 | 0.93 and 0.898
B9 | 0.702 and 0.808 | 0.803 and 0.924
B10 | 0.853 and 0.851 | 0.976 and 0.974
B11 | 0.799 and 0.757 and 0.78 | 0.966 and 0.915 and 0.943
B12 | 0.743 | 0.85
B13 | 0.742 and 0.757 | 0.849 and 0.866
B14 | 0.812 | 0.929
B15 | 0.843 and 0.733 | 0.965 and 0.839
B16 | 0.836 and 0.846 and 0.801 | 0.957 and 0.968 and 0.916
B17 | 0.818 and 0.843 and 0.822 | 0.936 and 0.965 and 0.941
B18 | 0.743 and 0.756 and 0.715 | 0.898 and 0.914 and 0.865
B19 | 0.752 | 0.909
B20 | 0.8 | 0.915
B21 | 0.806 | 0.975

From US20230365662A1
